Assay results: paper PMC4108507 (Journal of immunology (Baltimore, Md. : 1950), 2014)

Molecular target: HA-DHX15, full-length recombinant protein (murine, UniProt O35286 1-795)
Experiment: pull-down

HA-DHX15, full-length recombinant protein, sequence (O35286 whole entry): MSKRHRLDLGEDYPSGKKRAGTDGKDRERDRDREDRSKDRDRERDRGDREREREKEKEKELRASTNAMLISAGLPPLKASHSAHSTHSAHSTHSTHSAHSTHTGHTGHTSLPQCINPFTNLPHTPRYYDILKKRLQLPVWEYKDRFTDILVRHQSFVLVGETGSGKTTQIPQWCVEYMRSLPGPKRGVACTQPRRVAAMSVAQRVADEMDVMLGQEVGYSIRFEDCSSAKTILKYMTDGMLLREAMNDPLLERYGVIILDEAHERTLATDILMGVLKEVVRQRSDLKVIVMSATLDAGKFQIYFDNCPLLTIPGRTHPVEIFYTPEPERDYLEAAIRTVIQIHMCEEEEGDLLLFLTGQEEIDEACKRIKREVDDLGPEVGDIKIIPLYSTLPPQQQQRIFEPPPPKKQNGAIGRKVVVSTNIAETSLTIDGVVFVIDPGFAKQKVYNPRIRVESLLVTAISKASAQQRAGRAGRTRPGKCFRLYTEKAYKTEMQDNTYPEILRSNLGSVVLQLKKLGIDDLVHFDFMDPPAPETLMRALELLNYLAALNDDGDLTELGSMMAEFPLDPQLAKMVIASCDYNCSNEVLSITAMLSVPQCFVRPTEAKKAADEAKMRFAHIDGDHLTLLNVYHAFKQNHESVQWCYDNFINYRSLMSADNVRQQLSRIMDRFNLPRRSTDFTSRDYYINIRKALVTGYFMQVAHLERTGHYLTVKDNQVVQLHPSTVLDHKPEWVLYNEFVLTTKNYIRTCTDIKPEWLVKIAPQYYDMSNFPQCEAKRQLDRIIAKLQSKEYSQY

B1: Myc-MAVS, full-length recombinant protein (natural protein, murine, UniProt Q8VCF0 1-503, looked up)
chain: MTFAEDKTYKYIRDNHSKFCCVDVLEILPYLSCLTASDQDRLRASYRQIGNRDTLWGLFNNLQRRPGWVEVFIRALQICELPGLADQVTRVYQSYLPPGTSLRSLEPLQLPDFPAAVSGPSAFAPGHNIPDHGLRETPSCPKPVQDTQPPESPVENSEQLLQTNSGAVARMSGGSLIPSPNQQALSPQPSREHQEQEPELGGAHAANVASVPIATYGPVSPTVSFQPLPRTALRTNLLSGVTVSALSADTSLSSSSTGSAFAKGAGDQAKAATCFSTTLTNSVTTSSVPSPRLVPVKTMSSKLPLSSKSTAAMTSTVLTNTAPSKLPSNSVYAGTVPSRVPASVAKAPANTIPPERNSKQAKETPEGPATKVTTGGNQTGPNSSIRSLHSGPEMSKPGVLVSQLDEPFSACSVDLAISPSSSLVSEPNHGPEENEYSSFRIQVDESPSADLLGSPEPLATQQPQEEEEHCASSMPWAKWLGATSALLAVFLAVMLYRSRRLAQ
B1: binds.
